Source: patent publication US20250186503A1, “METHODS AND COMBINATIONS FOR TREATMENT AND T CELL MODULATION” (Juno Therapeutics, Inc., priority 2018, published 2025)

System: anti-BCMA CARs
Test: Binding of BCMA-Fc fusion protein to CAR-expressing T cells (flow cytometry)
Description: The clone encoding the human BCMA-Fc fusion construct with the N-terminal CD33 leader sequence (SEQ ID NO: 21) was inserted into an expression vector and expressed in HEK 293 cells. The resulting BCMA-Fc fusion protein was determined to have a purity of greater than 95% as assessed by gel permeation chromatography.

B1: BCMA-Fc fusion protein: extracellular domain of human BCMA and a human IgG1 Fc connected with a linker (SEQ ID NO: 22) (protein)
chain: MPLLLLLPLLWAGALAMLQMAGQCSQNEYFDSLLHACIPCQLRCSSNTPPLTCQRYCNASVTNSVKGTNAGGGGSPKSSDKTHTCPPCPAPEAEGAPSVFLFPPKPKDTLMISRTPEVTCVVVDVSHEDPEVKFNWYVDGVEVHNAKTKPREEQYNSTYRVVSVLTVLHQDWLNGKEYKCKVSNKALPSSIEKTISKAKGQPREPQVYTLPPSRDELTKNQVSLTCLVKGFYPSDIAVEWESNGQPENNYKTTPPVLDSDGSFFLYSKLTVDKSRWQQGNVFSCSVMHEALHNHYTQKSLSLSPGK
modifications: BCMA-Fc construct
Question: With B1 as the molecule, how does the “binding to anti-BCMA CAR expressing T cells” value read?
Answer: specifically bound
